According to the Human Domainome abundance scans (Beltran et al. 2025):
± gives the uncertainty stated by the source.

B1: DnaJ homolog subfamily C member 2, residues 451 to 503; numbered along this chain, Q99543 (parent)
chain: SKNWSEDDLQLLIKAVNLFPAGTNSRWEVIANYMNIHSSSGVKRTAKDVIGKA

Variants of: B1
Test: abundance fitness (aPCA) (normalised: wild type 0, dead -1); higher = more abundant; growth selection in yeast, the domain comes from the species named
Details: Homo sapiens

Variant	abundance fitness
SKNWSEDDLQLLIKAVNLFPAGTNSRWEVIANYMNIHSSMGVKRTAKDVIGKA [S40M]	-0.536 ± 0.12
SKNWSEDDLQLLIKAVNLFPAGTNSRWEVIANYMNIHSSRGVKRTAKDVIGKA [S40R]	-0.286 ± 0.055
SKNWSEDDLQLLIKAVNLFPAGTNSRWEVIANYMNIHSSHGVKRTAKDVIGKA [S40H]	-0.125 ± 0.098
SKNWSEDDLQLLIKAVNLFPAGTNSRWEVIANYMNIHSSYGVKRTAKDVIGKA [S40Y]	-0.504 ± 0.1
SKNWSEDDLQLLIKAVNLFPAGTNSRWEVIANYMNIHSSEGVKRTAKDVIGKA [S40E]	-0.336 ± 0.087
SKNWSEDDLQLLIKAVNLFPAGTNSRWEVIANWMNIHSSSGVKRTAKDVIGKA [Y33W]	-0.073 ± 0.066
SKNWSEDDLQLLIKAVNLFPAGTNSRWEVIANSMNIHSSSGVKRTAKDVIGKA [Y33S]	-0.87 ± 0.079
SKNWSEDDLQLLIKAVNLFPAGTNSRWEVIANMMNIHSSSGVKRTAKDVIGKA [Y33M]	-0.882 ± 0.1
SKNWSEDDLQLLIKAVNLFPAGTNSRWEVIQNYMNIHSSSGVKRTAKDVIGKA [A31Q]	-0.549 ± 0.09
SKNWSEDDLQLLIKAVNLFPAGTNSRWEVIENYMNIHSSSGVKRTAKDVIGKA [A31E]	-0.859 ± 0.097
SKNWSEDDLQLLIKAVNLFPAGTNSRWEVITNYMNIHSSSGVKRTAKDVIGKA [A31T]	0.051 ± 0.066
SKNWSEDDLQLLIKAVNLFPAGTNSRWEVIANYMNIHSSSGVRRTAKDVIGKA [K43R]	-0.045 ± 0.058
SKNWSEDDLQLLIKAVNLFPAGTNSRWEVIANYMNIHSSSGVDRTAKDVIGKA [K43D]	-0.015 ± 0.083
SKNWSEDDLQLLIKAVNLFPAGTNSRWEVIANYMNIHSSSGVSRTAKDVIGKA [K43S]	-0.153 ± 0.065
SKNWSEDDLQLLIKAVNLFPAGTNSRWEVIANYMNIHSSSGVLRTAKDVIGKA [K43L]	-0.067 ± 0.063
SKNWSEDDLQLLIKAVNLFPAGTNSRWEVIANYMNIHSSSTVKRTAKDVIGKA [G41T]	-0.072 ± 0.074
SKNWSEDDLQLLIKAVNLFPAGTNSRWEVIANYMNIHSSSEVKRTAKDVIGKA [G41E]	-0.151 ± 0.086
SKNWSEDDLQLLIKAVNLFPAGTNSRWEVIANYMNIHSSSRVKRTAKDVIGKA [G41R]	-0.061 ± 0.056
SKNWSEDDLQLLIKAVNLFPAGTNSRWEVIANYMNIHSSSKVKRTAKDVIGKA [G41K]	0.001 ± 0.077
SKNWSEDDLQLLIKAVNLFPAMTNSRWEVIANYMNIHSSSGVKRTAKDVIGKA [G22M]	-0.371 ± 0.078
SKNWSEDDLQLLIKAVNHFPAGTNSRWEVIANYMNIHSSSGVKRTAKDVIGKA [L18H]	-0.272 ± 0.12
SKNWSEDDLQLLIKAVNAFPAGTNSRWEVIANYMNIHSSSGVKRTAKDVIGKA [L18A]	0.043 ± 0.096
SKNWAEDDLQLLIKAVNLFPAGTNSRWEVIANYMNIHSSSGVKRTAKDVIGKA [S5A]	-0.747 ± 0.41
SKNWSEDDLQLLIKAVNLFPAGTNSRWEVIANYMNIHSSSGVKRTAKDVDGKA [I50D]	-0.224 ± 0.096
SKNWSEDDLQLLIKAVNLFPAGTNSRWEVIANYMNIHSSSGVKRTAKDVAGKA [I50A]	0.085 ± 0.081

Variant	abundance fitness
SKNWSEDDLQLLIKAVNLFPAGTNSRWEVIANYMNIHSSSGVKRTAKDVPGKA [I50P]	-0.632 ± 0.16
SKNWSEDDLQLLIKAVNLFPAGTNSRWEVIANYMNIHSRSGVKRTAKDVIGKA [S39R]	0 ± 0.056
SKNWSEDDLQLLIKAVNLFPAGTNSRWEVLANYMNIHSSSGVKRTAKDVIGKA [I30L]	-0.789 ± 0.068
SKNWSEDDLQLLIKAVNLFPAGTNSRWEVTANYMNIHSSSGVKRTAKDVIGKA [I30T]	-0.987 ± 0.12
SKNWSEDDWQLLIKAVNLFPAGTNSRWEVIANYMNIHSSSGVKRTAKDVIGKA [L9W]	-0.058 ± 0.068
SKNWSEDDVQLLIKAVNLFPAGTNSRWEVIANYMNIHSSSGVKRTAKDVIGKA [L9V]	-0.082 ± 0.058
SKNWSEDDLQLLIKAVNLFPAGTNSRWEVIANYMNIHSSSGVKRTFKDVIGKA [A46F]	-0.366 ± 0.091
SKNWSEDDLQLLIKAVNLFPAGTNSRWEVIANYMNIHSSSGVKRTPKDVIGKA [A46P]	-0.083 ± 0.1
SKNWSEDDLQLLIKAVNLFPAGTNSRWEVIANYMNIHSSSGVKRTLKDVIGKA [A46L]	-0.355 ± 0.068
SKNWSEDDLQLLIKAVNLFPSGTNSRWEVIANYMNIHSSSGVKRTAKDVIGKA [A21S]	-0.029 ± 0.065
SKNWSEDDLQLLIKAVNLFPTGTNSRWEVIANYMNIHSSSGVKRTAKDVIGKA [A21T]	-0.016 ± 0.082
SKNWSEDDLQLLIKAVNLFPLGTNSRWEVIANYMNIHSSSGVKRTAKDVIGKA [A21L]	-0.079 ± 0.059
SKNWSEDDLQLLIKYVNLFPAGTNSRWEVIANYMNIHSSSGVKRTAKDVIGKA [A15Y]	-0.688 ± 0.14
SKNWSEDDLQLLIKTVNLFPAGTNSRWEVIANYMNIHSSSGVKRTAKDVIGKA [A15T]	-0.519 ± 0.093
SKNWSEDDLQLLIKAVNLFPAGTNSRWEVIANYMNIHSSSGVKRTAKRVIGKA [D48R]	-0.708 ± 0.066
SKNWSEDDLQLLIKAVNLFPAGTNSRWEVIANYMNIHSSSGVKRTAKWVIGKA [D48W]	-0.845 ± 0.1
SKNWSEDDLQLLIKAVNLFPAGTNSRWRVIANYMNIHSSSGVKRTAKDVIGKA [E28R]	-0.138 ± 0.063
SKNWSEDDLQLLIKAVNLFPAGTNSRWNVIANYMNIHSSSGVKRTAKDVIGKA [E28N]	-0.312 ± 0.2
SKNWSEDDLQLLIKAVNLFPAGTNLRWEVIANYMNIHSSSGVKRTAKDVIGKA [S25L]	-0.239 ± 0.063
SKNWSYDDLQLLIKAVNLFPAGTNSRWEVIANYMNIHSSSGVKRTAKDVIGKA [E6Y]	-0.186 ± 0.16
PKNWSEDDLQLLIKAVNLFPAGTNSRWEVIANYMNIHSSSGVKRTAKDVIGKA [S1P]	-0.547 ± 0.25
AKNWSEDDLQLLIKAVNLFPAGTNSRWEVIANYMNIHSSSGVKRTAKDVIGKA [S1A]	-0.372 ± 0.13
CKNWSEDDLQLLIKAVNLFPAGTNSRWEVIANYMNIHSSSGVKRTAKDVIGKA [S1C]	-0.261 ± 0.097
SKNQSEDDLQLLIKAVNLFPAGTNSRWEVIANYMNIHSSSGVKRTAKDVIGKA [W4Q]	-0.704 ± 0.095
